Laboratory results published in patent US20030028009A1.

Biological target: integrin αvβ3 expressed on cells (human) (UniProt P06756)
Assay: cell-based or functional assay

integrin αvβ3 expressed on cells (human), sequence (P06756 31-1048, chain 1 of 2): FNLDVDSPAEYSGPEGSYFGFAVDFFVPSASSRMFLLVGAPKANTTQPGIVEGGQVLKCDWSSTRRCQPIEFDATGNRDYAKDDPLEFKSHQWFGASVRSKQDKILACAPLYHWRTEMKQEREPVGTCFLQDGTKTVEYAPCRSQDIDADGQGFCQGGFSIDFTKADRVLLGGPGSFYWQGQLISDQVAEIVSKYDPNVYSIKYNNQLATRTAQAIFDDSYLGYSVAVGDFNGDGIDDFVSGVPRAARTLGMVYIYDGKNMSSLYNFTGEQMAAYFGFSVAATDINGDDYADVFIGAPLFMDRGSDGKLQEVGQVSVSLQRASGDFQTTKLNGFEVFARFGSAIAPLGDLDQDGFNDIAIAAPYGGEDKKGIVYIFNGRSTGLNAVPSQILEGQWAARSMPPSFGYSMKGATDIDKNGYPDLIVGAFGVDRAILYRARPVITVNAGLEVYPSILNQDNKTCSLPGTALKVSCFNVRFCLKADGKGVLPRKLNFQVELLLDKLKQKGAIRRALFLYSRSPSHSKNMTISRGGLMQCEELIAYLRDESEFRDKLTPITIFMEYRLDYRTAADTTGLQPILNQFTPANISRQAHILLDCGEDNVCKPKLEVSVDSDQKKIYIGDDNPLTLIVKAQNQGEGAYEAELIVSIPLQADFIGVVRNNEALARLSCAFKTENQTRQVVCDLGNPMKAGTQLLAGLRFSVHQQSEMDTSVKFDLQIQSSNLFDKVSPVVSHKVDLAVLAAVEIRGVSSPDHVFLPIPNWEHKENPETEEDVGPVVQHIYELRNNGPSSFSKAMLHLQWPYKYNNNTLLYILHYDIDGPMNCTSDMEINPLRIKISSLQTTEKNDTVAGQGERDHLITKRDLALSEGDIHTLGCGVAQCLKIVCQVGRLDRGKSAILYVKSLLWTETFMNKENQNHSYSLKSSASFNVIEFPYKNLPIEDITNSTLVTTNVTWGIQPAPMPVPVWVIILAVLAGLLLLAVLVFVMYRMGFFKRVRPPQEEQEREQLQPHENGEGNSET
integrin αvβ3 expressed on cells (human), sequence (P05106 27-788, chain 2 of 2, further chain): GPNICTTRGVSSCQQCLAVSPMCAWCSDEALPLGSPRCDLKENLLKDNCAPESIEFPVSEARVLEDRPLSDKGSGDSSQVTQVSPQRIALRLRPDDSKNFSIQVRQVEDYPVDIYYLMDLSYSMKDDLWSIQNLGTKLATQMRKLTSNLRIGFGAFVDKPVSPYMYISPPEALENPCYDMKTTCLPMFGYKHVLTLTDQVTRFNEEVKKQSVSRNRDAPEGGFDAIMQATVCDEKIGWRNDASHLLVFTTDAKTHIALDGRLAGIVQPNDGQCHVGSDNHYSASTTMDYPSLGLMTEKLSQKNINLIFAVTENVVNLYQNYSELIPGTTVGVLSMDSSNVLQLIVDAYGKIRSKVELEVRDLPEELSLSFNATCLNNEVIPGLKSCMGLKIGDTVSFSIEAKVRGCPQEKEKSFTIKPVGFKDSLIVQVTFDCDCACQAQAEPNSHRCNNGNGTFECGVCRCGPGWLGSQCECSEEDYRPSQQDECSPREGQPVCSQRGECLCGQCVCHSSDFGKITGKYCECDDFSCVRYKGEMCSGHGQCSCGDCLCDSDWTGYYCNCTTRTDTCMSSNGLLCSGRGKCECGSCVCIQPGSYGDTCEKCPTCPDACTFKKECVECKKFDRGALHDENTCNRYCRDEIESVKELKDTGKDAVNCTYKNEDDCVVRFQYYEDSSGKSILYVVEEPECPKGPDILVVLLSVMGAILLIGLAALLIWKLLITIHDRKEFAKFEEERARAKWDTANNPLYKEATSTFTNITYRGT

monoclonal antibody LM609 (murine IgG) was tested, and the inhibition of vitronectin-induced migration of endothelial cells (transwell) was 60% and the inhibitory concentration for 50% maximal adhesion (M21 cell adhesion to fibrinogen) was 50 ng/mL.
